In patent US20210380703A1:
Numbering of substitutions follows the chain as printed.

B1: 367_A12 (antibody, V domains shown)
VH: EVQLLESGGGLVQPGGSLRLSCAASGFTFSSYGMNWVRQAPGKGLEWVSGINYNSGYTSYADSVKGRFTISRDNSKNTLYLQMNSLRAEDTAVYYCARGANWHDTHLDYWGQGTLVTVSS
VL: DIQMTQSPSSLSASVGDRVTITCRASQSILSYLNWYQQKPGKAPKLLIYAATSLHSGVPSRFSGSGSGTDFTLTISSLQPEDFATYYCQQSYNNPLTFGGGTKVEIK
B2: 371_C05 (antibody, V domains shown)
VH: B1 VH with S31D, N35H, S49A, G50N, S55G, S59G, H106A
VL: B1 VL with L54R, H55A, N93D, N94S
B3: 370_A02 (antibody, V domains shown)
VH: B1 VH with S30D, S49A, S55G, S59G, H106A
VL: B1 VL with L30V, S31T, L47V, L54R, H55A, N93D, N94S
B4: 367_D06 (antibody, V domains shown)
VH: B1 VH with S30D, G33S, S49A, S55G
VL: B1 VL with L30S, S31T, L47V, H55A, N94S
B5: 370_F03 (antibody, V domains shown)
VH: B1 VH with G50S, T58K, H106A
VL: B1 VL with L33V, L54R, H55A, N93E
B6: 369_D07 (antibody, V domains shown)
VH: B1 VH with S55G, T58K
VL: B1 VL with L30V, L47V, L54R, H55A, N93D, N94L
B7: 368_A04 (antibody, V domains shown)
VH: B1 VH with S30D, S31D, G33S, S49A, S55G, T58K
VL: B1 VL with S31T, L47V, A51V, L54R, H55A, N93E, N94L
B8: 371_A10 (antibody, V domains shown)
VH: B1 VH with S30D, S31D, G33S, S55G, T58K, S59G, H106A
VL: B1 VL with L30V, L47V, L54R, H55A, N93E
B9: 370_B12 (antibody, V domains shown)
VH: B1 VH with S31D, G33S, S55G, T58K, S59G, H106A
VL: B1 VL with L33V, L47V, A51T, L54R, H55A, N93E, N94T
B10: 370_B03 (antibody, V domains shown)
VH: B1 VH with G33S, S49A, G50N, S55G, S59G, H106A
VL: B1 VL with L47V, L54R, H55A
B11: 368_B09 (antibody, V domains shown)
VH: B1 VH with S30D, G50N, S55G, T58K, S59G
VL: B1 VL with L54R, N93D, N94T
B12: 366_G06 (antibody, V domains shown)
VH: B1 VH with N35H, S49A, G50S, S55G, S59G, G99A
VL: B1 VL with L30V, L33V, L47V, L54R, H55A, N93D
B13: 371_B03 (antibody, V domains shown)
VH: B1 VH with N35H, S49A, G50S, S55G
VL: B1 VL with L33V, A51T, L54R, H55A, N93D
B14: 368_E12 (antibody, V domains shown)
VH: B1 VH with S31D, S49A, S55G
VL: B1 VL with L30V, L33V, L47V, A51V, L54R, H55A, N93D, N94S
B15: 369_A07 (antibody, V domains shown)
VH: B1 VH with G33S, S49A, S55G, T58K, S59G, H106A
VL: B1 VL with L47V, L54R, H55A, N93E, N94S
B16: 367_C10 (antibody, V domains shown)
VH: B1 VH with S30D, G33S, S55G, H106A
VL: B1 VL with L30V, L33V, A51V, L54R, H55A, N93E, N94T
B17: 370_H02 (antibody, V domains shown)
VH: B1 VH with S30D, G33S
VL: B1 VL with S31T, L54R, H55A, N93E, N94S
B18: 370_H07 (antibody, V domains shown)
VH: B1 VH with G33S, S49A, S55G, T58K, H106A
VL: B1 VL with H55A, Y92D, N93S, N94S
B19: 371_D04 (antibody, V domains shown)
VH: B1 VH with S30D, S31D, G33S, S49A, S55G, S59G
VL: B1 VL with L30V, L33V, H55A, N93E
B20: 367_E05 (antibody, V domains shown)
VH: B1 VH with S49A, S55G
VL: B1 VL with L54R, N93D, N94S
B21: 368_F09 (antibody, V domains shown)
VH: B1 VH
VL: B1 VL with S31T, T52S, H55Q, N93E, N94T
B22: 371_B09 (antibody, V domains shown)
VH: B1 VH with G33S, S49A, S59G
VL: B1 VL with L33V, L47V, A51T, H55A, N93D, N94T
B23: 369_C05 (antibody, V domains shown)
VH: B1 VH with S30D, G33S, S49A, S55G, H106A
VL: B1 VL with L30S, L33V, L47V, A51T, L54R, N94S
B24: 367_G01 (antibody, V domains shown)
VH: B1 VH with S30D, S49A, G50S, S59G
VL: B1 VL with L30S, L47V, L54R, H55A, N93D, N94L
B25: 368_A03 (antibody, V domains shown)
VH: B1 VH with G33S, S55G, S59G
VL: B1 VL with L30I, A51V, L54R, H55A, N93E
B26: 370_B11 (antibody, V domains shown)
VH: B1 VH with S30D, G33S
VL: B1 VL with L47V, L54R, S91G, N93D, N94L
B27: 371_D02 (antibody, V domains shown)
VH: B1 VH with S30D, S31D, G33S, S49A, S55G, T58K, H106A
VL: B1 VL with L30V, S31T, L54R, H55A, N93D, N94S
B28: 367_G04 (antibody, V domains shown)
VH: B1 VH with G33S, S49A
VL: B1 VL with L47V, L54R, H55A, N93D, N94S
B29: 367_B09 (antibody, V domains shown)
VH: B1 VH with S30D, N35H, S49A, G50S, S55G, G99A, H106A
VL: B1 VL with L33V, L47V, L54R, H55A, N93E
B30: 369_D03 (antibody, V domains shown)
VH: B1 VH with G33S, S55G
VL: B1 VL with S31T, L47V, L54R, H55A, N93E
B31: 367_D08 (antibody, V domains shown)
VH: B1 VH with S31D, G33S, S49A, S55G
VL: B1 VL with L47V, L54R, Y92D, N93D, N94L
B32: 366_F10 (antibody, V domains shown)
VH: B1 VH with S30D, G33S, S49A, S55G, S59G, G99A
VL: B1 VL with L30V, L47V, L54R, H55A, N93D, N94T
B33: 371_C12 (antibody, V domains shown)
VH: B1 VH with G33S, S49A, T58K
VL: B1 VL with L30V, L33V, L54R, H55A, N93D, N94T
B34: 367_D03 (antibody, V domains shown)
VH: B1 VH with S30D, G33S, G50S, S55G, S59G
VL: B1 VL with L30I, S31T, L54R, H55A, N93D, N94T
B35: 370_D05 (antibody, V domains shown)
VH: B1 VH with S30D, S31D, G33S, G50N, S55G, T58K, S59G, H106A
VL: B1 VL with L30I, S31T, L47V, L54R, N93D, N94T
B36: 367_D12 (antibody, V domains shown)
VH: B1 VH with G33S, G50S, S55G, S59G
VL: B1 VL with L30V, L33V, L47V, L54R, H55A, N93E, N94S
B37: 368_H02 (antibody, V domains shown)
VH: B1 VH with S49A, H106A
VL: B1 VL with L30V, S31T, L47V, L54R, H55A, N93E, N94S
B38: 369_E06 (antibody, V domains shown)
VH: B1 VH with S55G, H106A
VL: B1 VL with L30I, L47V, L54R, N93D, N94S
B39: 368_H05 (antibody, V domains shown)
VH: B1 VH with G33S, S49A, G50N, S55G, T58K
VL: B1 VL with L30V, L33V, L47V, A51T, L54R, H55A, N93E, N94S
B40: 367_C07 (antibody, V domains shown)
VH: B1 VH with G33S, G50S, S59G
VL: B1 VL with S31T, L33V, L54R, H55A, N94L
B41: 371_B12 (antibody, V domains shown)
VH: B1 VH with S31D, G33S, S49A, H106A
VL: B1 VL with L30V, S31T, L47V, L54R
B42: 367_H03 (antibody, V domains shown)
VH: B1 VH with S49A
VL: B1 VL with L30I, S31T, L33V, H55A, N93D, N94L
B43: 367_B12 (antibody, V domains shown)
VH: B1 VH with N35H, S49A, G50S, S55G, T58K
VL: B1 VL with L33V, L47V, H55A, N93D, N94T
B44: 369_B05 (antibody, V domains shown)
VH: B1 VH with S30D, G33S, S55G, T58K
VL: B1 VL with L30I, H55A, N93D, N94T
B45: 371_C01 (antibody, V domains shown)
VH: B1 VH with N35H, G50S, S55G, S59G
VL: B1 VL with L30V, L54R, N93D
B46: 367_B04 (antibody, V domains shown)
VH: B1 VH with S30D, G33S, T58K
VL: B1 VL with L54R, H55A, N93E, N94L
B47: 369_D09 (antibody, V domains shown)
VH: B1 VH with S31D, G50N, S55G, H106A
VL: B1 VL with S31T, L54R, H55A, N93D, N94S
B48: 371_B04 (antibody, V domains shown)
VH: B1 VH with G33S, S55G, T58K, H106A
VL: B1 VL with L47V, A51V, L54R, N93D, N94S

These binders were tested against human Fc (human) (assay: ELISA, negative control).
Work on B1 yielded an optical density of 0.39 OD.
B2 gave an optical density of 0.269 OD.
Binder B3 has an optical density of 0.425 OD.
B4 gave an optical density of 0.283 OD.
Binder B5 has an optical density of 0.373 OD.
B6 showed an optical density of 0.363 OD.
B7 was tested, and the optical density was 0.283 OD.
B8 gave an optical density of 0.338 OD.
With B9 the optical density was 0.478 OD.
Binder B10 has an optical density of 0.3 OD.
B11 was tested, and the optical density was 0.258 OD.
B12 showed an optical density of 0.341 OD.
B13 gave an optical density of 0.367 OD.
B14 was tested, and the optical density was 0.347 OD.
For B15, the optical density was 0.288 OD.
In the case of B16, the optical density is reported as 0.233 OD.
Binder B17 has an optical density of 0.386 OD.
With B18 the optical density was 0.403 OD.
B19 was tested, and the optical density was 0.276 OD.
For B20, the optical density was 0.333 OD.
For B21, the optical density was 0.242 OD.
B22 showed an optical density of 0.292 OD.
With B23 the optical density was 0.32 OD.
With B24 the optical density was 0.356 OD.
Work on B25 yielded an optical density of 0.348 OD.
B26 showed an optical density of 0.326 OD.
B27 gave an optical density of 0.385 OD.
For B28, the optical density was 0.287 OD.
Work on B29 yielded an optical density of 0.476 OD.
With B30 the optical density was 0.391 OD.
In the case of B31, the optical density is reported as 0.237 OD.
B32 was tested, and the optical density was 0.28 OD.
Work on B33 yielded an optical density of 0.544 OD.
B34 was tested, and the optical density was 0.29 OD.
Work on B35 yielded an optical density of 0.333 OD.
B36 showed an optical density of 0.309 OD.
B37 was tested, and the optical density was 0.348 OD.
Binder B38 has an optical density of 0.306 OD.
For B39, the optical density was 0.277 OD.
Binder B40 has an optical density of 0.387 OD.
B41 gave an optical density of 0.378 OD.
For B42, the optical density was 0.377 OD.
Work on B43 yielded an optical density of 0.414 OD.
B44 was tested, and the optical density was 0.314 OD.
B45 gave an optical density of 0.402 OD.
B46 was tested, and the optical density was 0.265 OD.
With B47 the optical density was 0.287 OD.
Work on B48 yielded an optical density of 0.295 OD.
